Measurements published in the nanobody polyreactivity screen of Harvey et al. (2022).

Assay: yeast display, Sf9 membrane polyspecificity reagent, FACS + sequencing; frameworks hold sequencing errors
Method in brief: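 Sorting gates, low and high (top ~1%), were placed on anti-HA fluorescence to track expression and on streptavidin fluorescence to track reagent binding. A clone's polyreactivity label is taken from the gate it came out of. The reagent was 10% biotinylated, detergent-solubilized Sf9 membrane, applied for 1 hour at 4 °C to galactose-induced yeast display cells.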

Row | Sequence | polyreactivity (PSR sort gate)
1 | QVQLVESGVGLVQAGGSLRLSCAASGITFTSYAMGWYRQAPVKERELVAAISSSGVRTYYADSVKGRFTISRDNSKNTVYLQMNSLKPEDTAVYYCATRRRVLYGYDYWGQGTQVTVSS | high polyreactivity
2 | QVQLVESGVGLVQAGGSLRLSCAASGITFVDYGMGWYRQAPGKERELVSAISRSGGSTYYADSVKGRFTISRDNAKNTVYLQMNSLKPEDTAVYYCATVLSRVRNSDKYWGQVTQVTVSS | high polyreactivity
3 | QVQLVESGVGLVQAGGSLRLSCAASGITFVGYAMGWSRQAPGKERELVASITRGGGSTYYADSVKGRFTISRDNAKNTVYLQMNSLKPEDTAVYYCAARSHSTYYYWGQGTQVTVSS | high polyreactivity
4 | QVQLVESGVGLVQAGGSLRLSCAASGITISYYSKGWSRQEPGKEREFVAAISWSVGSTYYADSVKGRFTISRDNAKNTVYLQMNSLKPEDTAVYYCAAEDGYWPTYYYWGQGTQVTVSW | high polyreactivity
5 | QVQLVESGVGLVQAGGSLRLSCAASGLIFASNSMGSYRQAPGKEREFVAAITSSGGSTYYADSVKGRFPISRDNAKNTVYLQMNSLKPEDTAVYYCAADLYGAWWYTYGRYYYWGQGTQVTVSS | low polyreactivity
6 | QVQLVESGVGLVQAGGSLRLSCAASGLILRKYAKGWYSQAPGKEREFVAAITQTGSRTYYADSVKGRFTISRDNAKNTVYLQMNSLKPEDTAVYYCNAVNYRSSRDSGYWGQGTQVTVSS | high polyreactivity
7 | QVQLVESGVGLVQAGGSLRLSCAASGLTFGWYAMGWYRQAPGKERELVASITRRSGSTYYADSVKGRFTISRDNAKNTVYLQMNSLKPEDTAVYYCAARSRGTTRFDFWGQGTQVTVSW | high polyreactivity
8 | QVQLVESGVGLVQAGGSLRLSCAASGLTFLWYAMGWYRQAPGKERELVAAITSGGRTKYADSVKGRFTISRDNAKNTVYLQMNSLKPEDTAVYYCAAYTQWWGYDYWGQGTQVSVSS | high polyreactivity
9 | QVQLVESGVGLVQAGGSLRLSCAASGLTFPWYTMGWNRQAPGKERELVAAINSRGGSTYYADSVKGRFTISRDNAKNTVYLQMNRLKPVDTAVYYCATRSFGRMDYWGQGTQVTVSS | high polyreactivity
10 | QVQLVESGVGLVQAGGSLRLSCAASGRIFATNAMGWYRQAPGKERELVATITRSAGRTYYADSVKGRFTISRDNAKNTVYLQMNSLKPEDTAVYYCAASYWDTEPGYREYDYWGQGTQVTVSS | low polyreactivity
11 | QVQLVESGVGLVQAGGSLRLSCAASGRIFERYAMGWYRQAPGKERELVAAIRSGGSTKYADSVKGRFTISRGNAKNTVYLQMNSLKPEDTAVYYCAAVIHYGDGYWGQGTQVTVSS | low polyreactivity
12 | QVQLVESGVGLVQAGGSLRLSCAASGRIFFNNAMGWYIQAPGKERELVAGITSGSSTNYADSVKGRFTISRDNAKNTVYLQMNSLKPEDTAVYYCNAGDFERDVVVFIQHGGYYWGQGTQVTVSS | low polyreactivity
13 | QVQLVESGVGLVQAGGSLRLSCAASGRIFGFYAMGWYRQAPGKESELVAAITVSGSSTRYADSVKGRFTISRDIAKNTFYLQMNSLKPEDTGVYYCAAFNRCSGGFDYWGQGTQVTVSS | high polyreactivity
14 | QVQLVESGVGLVQAGGSLRLSCAASGRIFIDYAMGWYRQAPGKERELVATISESGGSTYYADSVKGRFTISRDNAKNTVYLQMNSLKPEDTAVYYCAVDDRYGTVYFYTKFDYWGQGTQVTVSS | low polyreactivity
15 | QVQLVESGVGLVQAGGSLRLSCAASGRIFRPYAMGWYRQAPGKERELVAAITQSGGITSYADSVKGRFTISRDNAKNTVYLQMNSLKPEDTAVYYCATTSRYTRSHYDWYDYWGQGTQVTVSS | low polyreactivity
16 | QVQLVESGVGLVQAGGSLRLSCAASGRIFRWYAMGWYRQAPGKERELVASITWNGGSTYYADSVKGRFTISRDNAKNTVYLQMNSLKPEDNAVYYCAVPFYRGPEMGYWGQGTQVTVSS | high polyreactivity
17 | QVQLVESGVGLVQAGGSLRLSCAASGRIFYRNAMGWYRQAPGKERELVAAISYSGGRTYYADSVKGRFTISRDNAKNTVYLQMNSLKPEDTAVYYCAARYAWGYVDPGDYWGQGTQVTVSS | high polyreactivity
18 | QVQLVESGVGLVQAGGSLRLSCAASGRTFAYYAMGWNRQAPWKERELVARITSDGSTYYADSVKGRFTISRDNAKNTVYLQMNSLIPEDTAVYYCNARWRYKWKYDHWGQGTQVTVSS | low polyreactivity
19 | QVQLVESGVGLVQAGGSLRLSCAASGRTFFGYAMGWYRQAPGKEREFVASISKRGGRTYYADSVKGRFTISRDNAKNSVYLQMNSLKPEDTAVYYCNAYESYPDPLTMEYWGQGTQVTVSS | high polyreactivity
20 | QVQLVESGVGLVQAGGSLRLSCAASGRTFSYYAMGWSRQAPGKERELVAAITSSGGSTYYADSVKGRFTISRDNAKNTVYLQMNSLKPEDTAVYYCAAEIWYYLWTTFERKYDYWGQGTQVTVSS | low polyreactivity
21 | QVQLVESGVGLVQAGGSLRLSCAASGRTFTPYAMGWYRQAPGKEREFVAAISIVGRTKYADSVKGRFTISRDNAKNTVYLQMNSLKPEDTAVYYCNAQDSRDRKFYWGYTRGHWGLGTQVTVSS | low polyreactivity
22 | QVQLVESGVGLVQAGGSLRLSCAASGRTFVGNAMGWYRQAPGKERELVAAISVSGGSTYYADSVKGRFTISRDNAKNTVYVQMNSLKPEDTAGYYCAADGYYNRYGYRTSDESEYWGQGTQVTVTS | low polyreactivity

Row | Sequence | polyreactivity (PSR sort gate)
23 | QVQLVESGVGLVQAGGSLRLSCAASGRTFVNNAMGWYRQAPGKERELVAAISQSGSRTYYADSVKRRFTISRDNAKNTVYLQMNSLKPEDTAVYYCAARGARYSTSDYWGQGTQVTVSS | high polyreactivity
24 | QVQLVESGVGLVQAGGSLRLSCAASGRTFYVYAMGWYRQAPGKERELVAAISLGGGSTYYADSVKGRFTNSRDNGKNTVYLQMNSLKPEDTAVYYCAADITRYRLGRDYWGQATQVTVSS | low polyreactivity
25 | QVQLVESGVGLVQAGGSLRLSCAASGRTSAQYGMGWYRQAPGKERELVATITTSGGRTYYADSVKGRFTISRDTAKNTVYLQMNSLKPEDTAVYYGAAEGWTTPTPTSDDNQWWYDYWGQGTQVTVSS | high polyreactivity
26 | QVQLVESGVGLVQAGGSLRLSCAASGSIFASYTMGWYIQAPGKERELVAAINRSGGSTYYADSVKGRFTISRDNAKNTVYFQMNSLKPDDTAVYYCAAGYIRRYYGYDYWGQGTQVTVSS | high polyreactivity
27 | QVQLVESGVGLVQAGGSLRLSCAASGSIFDINAMGWYRQAPGKERELVAVITDSGSTYYADSVKGRFTISRDNAKNTVYLQMNSLKPEDTAVYYCAAESSLLFFLMDYWGQGTQVTVSS | low polyreactivity
28 | QVQLVESGVGLVQAGGSLRLSCAASGSIFGVNMGWYRQAPGKERELVASITSGGSTNYADSVKGRFTISRDNAKNTVYLQMNSLKPEDTAVYYCATDRYVWGQGTQVTVSS | low polyreactivity
29 | QVQLVESGVGLVQAGGSLRLSCAASGSIFKYYAMGWYRQAPGKERELVAAISSNGGRTYYADSVKGRFTISRDNAKNTDYLQMNSLKPEDTAVYYCARRYRRTGESEYDYWGQGTQVTVSS | high polyreactivity
30 | QVQLVESGVGLVQAGGSLRLSCAASGSIFQYNAMGWYRQAPGKERELVAAITSTGDTNYADSVKGRFTISRDNAKNTVYLQMNSLKAEDTAVYFCAADVYGTVRRVGWYYVGEGYDYWGQGTQVTVSS | low polyreactivity
31 | QVQLVESGVGLVQAGGSLRLSCAASGSIFWQNTMGGYRPAPGKERELVATITSAGSTYYADSVKGRFTISRDNAKNTVSLQMNSLKPEDTAVYYGAKGHHPGHVFHPDYGYDYWGQGTQVTVSS | low polyreactivity
32 | QVQLVESGVGLVQAGGSLRLSCAASGSIFYNYAMGWYRQAPGKEREFVAAISWSGDTTYYADSVKGRFTISRDNAKNTVYLQMNSLKPEDTAVYYCAAESYIWFWRPYYYWGQGTQVTLSS | low polyreactivity
33 | QVQLVESGVGLVQAGGSLRLSCAASGSILDYYVMGWYRQAPGKDRELVAAIRGGGSTYYADSVKGRFTFSRDNEKNTVYLQMNSLKPEDTAVYYCAKDSQTARDFDYSGQGTQVTVSS | low polyreactivity
34 | QVQLVESGVGLVQAGGSLRLSCAASGSILSKNAMAWYREAPGNERELVAAITWSGGSTYYADSVKGRFTISRDNEKNTVYLQMNSLKPEDTAVSYCAADLDWSPHFGLPYDYWGQGTQVTVSS | low polyreactivity
35 | QVQLVESGVGLVQAGGSLRLSCAASGSTFDVYDMGWYRQAPGKERELVASISWDGDRTYYADSVKGRFTISRDNAKNTVYLQMKSLKPEDTAVYYCAATLRPYSSFPNRYGYWGQGTQVSVSS | low polyreactivity
36 | QVQLVESGVGLVQAGGSLRLSCAASGSTFGGNAMGWYRQAPWKERELVADITFSGGSTSYAHSVKGSFTISRDNAKNTVYLLMNRLKPEDTAVYYCNRDYPEIIVAGLDFWGQGTQLTVSS | low polyreactivity
37 | QVQLVESGVGLVQAGGSLRLSCAASGSTFITYAMGWYRQAPGKERELVAAISTGGSTYYADSVKGRFTISRDNAKNTVYLQMNSLKPEDTAVYYCNAYSSSRGSTLQYSLQYDYWGQGTQVTVSS | low polyreactivity
38 | QVQLVESGVGLVQAGGSLRLSCAASGSTFLTNAMGWNRQAPGKERELVAAINWRGDSTYYADSVKGRFTISRDNAKNTVYLQMNSLKPEDTAVYYCAAKYNHVTDEYDYWGQGTQVTVSS | high polyreactivity
39 | QVQLVESGVGLVQAGGSLRLSCAASGSTFQWYAMGWYIQAPGKERELVAAINKSGGTTYYADSVKGRFTISRDNAKNTVYLLMNSLKPEDTAVYYCATDTPVVYQPGNMDYWGQGTQVTVSS | low polyreactivity
40 | QVQLVESGVGLVQAGGSLRLSCAASGSTFRGYAMGWYRQAPGKERELVAAISSSGGRTYYAYSVKGRFTISRDNAKNTVYLQMNSLKPEDTAVYYCNAASKNSVRYAYQNYDYWGQGTQVTVSS | high polyreactivity
41 | QVQLVESGVGLVQAGGSLRLSCAASGYTFRTNVMGWYRQAPGKERELVATINWRGGSTYYADSVKGRFTISRDNAKNTVYLQMNSLKPEDTAVYYCAADPGPYYDWGYDYWGQGTQVTVSS | low polyreactivity
42 | QVQLVESGVGLVQAGGSLRLSCADSGSNFRYTMGCYRQAPWKERELVAAINRGASTYYADSVKGRFTISRDNAKKTVYLQMNSLKPVDNAVYYCAASVGTQGYHGDYWGQGTQVTVSS | high polyreactivity
43 | QVQLVESGVGLVQAGGSLRLSCAGSGFNFIANAMGWYRQAPGKERELVAAISDGGSTYYADSVKGRFTISRDNAKNTVYLQMNSLKPEDTAVYYCAKDVTWAGHYDYWGQGTQVTVSS | low polyreactivity
